Tested on: His6-DnaA (Escherichia coli K-12?)
Test: EMSA

iraD upstream region, 672 bp
Kd: 42 nM

Source: doi:10.1101/2021.05.20.444958
